From PMC12207370, “Macrocyclic Peptide Probes for Immunomodulatory Protein CD59: Potent Modulators of Bacterial Toxin Activity and Antibody‐Dependent Cytotoxicity” (Angewandte Chemie (International Ed. in English), 2025)

Molecular target: T1, biotinylated CD59 (Homo sapiens, UniProt P13987)
T1 construct: Recombinant soluble human CD59 with an additional C-terminal cysteine residue
T1 sequence (P13987 26-102 limits assumed): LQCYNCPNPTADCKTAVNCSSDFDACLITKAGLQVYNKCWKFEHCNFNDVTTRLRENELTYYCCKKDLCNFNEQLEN
Experiment: mRNA-display cyclic peptide screen against CD59-biotin, NGS abundance after 6th selection round
Details: for Counts (raw counts for peptide sequence), Seq I: NGS sample Seq I; for Counts (raw counts for peptide sequence), Seq I / Counts (raw counts for peptide sequence), Seq II / Counts Seq I / Counts Seq II: sheet R6 (6th selection round); for Counts (raw counts for peptide sequence), Seq II: NGS sample Seq II; for Percentage of the pool, averaged across the two sequencing samples: average of Seq I and Seq II; for Percentage of the pool, averaged across the two sequencing samples / Percentage of the pool, Seq I / Percentage of the pool, Seq II / Percentage Seq I / Percentage Seq II / Percentage Average: sheet R6; for Percentage of the pool, Seq I: counts normalised by total counts of NGS sample Seq I; for Percentage of the pool, Seq II: counts normalised by total counts of NGS sample Seq II; for Percentage Seq I: counts normalised by total counts of sample Seq I; for Percentage Seq I / Percentage Seq II: percentage of the pool; for Percentage Seq II: counts normalised by total counts of sample Seq II; for Percentage Average: percentage of the pool averaged across the two sequencing samples; for Counts Seq I / Counts Seq II: raw NGS counts of peptide sequence; for Counts Seq I: sequencing sample Seq I; for Counts Seq II: sequencing sample Seq II
Outline: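 Peptide–mRNA fusions were made by in vitro translation with a customised PURE express kit. The kit lacked release factor 1 and methionine and was supplemented with […] initiator tRNA carrying N-chloroacetyl-d-tyrosine. Thioether macrocycles were formed, then enriched and amplified over iterative rounds on CD59-biotin immobilised on streptavidin beads. NGS read counts per sequence were recorded after the 6th selection round.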

Row | Sequence | Counts (raw counts for peptide sequence), Seq I | Counts (raw counts for peptide sequence), Seq II | Percentage of the pool, averaged across the two sequencing samples | Percentage of the pool, Seq I | Percentage of the pool, Seq II | Percentage Seq I | Percentage Seq II | Percentage Average | Counts Seq I | Counts Seq II
1 | FVRGDLYSALG | 80 | 6 | 0.016% | 0.018% | 0.014% | – | – | – | – | –
2 | FVRGDLYSILG | 50 | 6 | 0.013% | 0.011% | 0.014% | – | – | – | – | –
3 | FVRGDLYSVFG | – | – | – | – | – | 0.023% | 0.026% | 0.024% | 102 | 11
4 | FVRGDLYSVIG | 54 | 6 | 0.013% | 0.012% | 0.014% | – | – | – | – | –
5 | FVRGDLYSVLG | – | – | – | – | – | 4.958% | 4.911% | 4.934% | 21693 | 2116
6 | FVRGDLYSVLS | 43 | 4 | 0.010% | 0.010% | 0.009% | – | – | – | – | –
7 | FVRGDLYSVRG | – | – | – | – | – | 0.018% | 0.032% | 0.025% | 78 | 14
8 | FVRGDMYSVLG | 39 | 6 | 0.011% | 0.009% | 0.014% | – | – | – | – | –
9 | FVRGDPYSVLG | – | – | – | – | – | 0.057% | 0.049% | 0.053% | 251 | 21
10 | FVRGDQYSVLG | – | – | – | – | – | 0.056% | 0.081% | 0.069% | 247 | 35
11 | FVRGDRYSVLG | – | – | – | – | – | 0.045% | 0.039% | 0.042% | 198 | 17
12 | FVRGGLYSVLG | – | – | – | – | – | 0.020% | 0.019% | 0.019% | 86 | 8
13 | FVRGNRYSVLG | 64 | 5 | 0.013% | 0.015% | 0.012% | – | – | – | – | –
14 | FVRGNSTSVLF | – | – | – | – | – | 0.020% | 0.019% | 0.019% | 88 | 8
15 | FVSGNRDHTRG | 51 | 5 | 0.012% | 0.012% | 0.012% | – | – | – | – | –
16 | FVSGNSRFRRE | – | – | – | – | – | 0.062% | 0.070% | 0.066% | 270 | 30
17 | FVTGDRDHTRG | – | – | – | – | – | 0.127% | 0.121% | 0.124% | 554 | 52
18 | FVTGNRDHARG | – | – | – | – | – | 0.029% | 0.035% | 0.032% | 126 | 15
19 | FVTGNRDHTHG | 45 | 5 | 0.011% | 0.010% | 0.012% | – | – | – | – | –
20 | FVTGNRDHTRE | 33 | 7 | 0.012% | 0.00754% | 0.016% | – | – | – | – | –
21 | FVTGNRDHTRG | – | – | – | – | – | 7.311% | 7.094% | 7.203% | 31986 | 3057
22 | FVTGNRDHTRV | 35 | 5 | 0.010% | 0.008% | 0.012% | – | – | – | – | –
